Two molecules from patent US20120288494A1 (published 2012) can be followed below.

Experiment [1] deals with T1, human IL-12 p70 (human, UniProt P29460 23-328; P29459 23-219).
T1 construct: also called hIL-12; IL-12 p70 (p40/p35)
T1 sequence 1: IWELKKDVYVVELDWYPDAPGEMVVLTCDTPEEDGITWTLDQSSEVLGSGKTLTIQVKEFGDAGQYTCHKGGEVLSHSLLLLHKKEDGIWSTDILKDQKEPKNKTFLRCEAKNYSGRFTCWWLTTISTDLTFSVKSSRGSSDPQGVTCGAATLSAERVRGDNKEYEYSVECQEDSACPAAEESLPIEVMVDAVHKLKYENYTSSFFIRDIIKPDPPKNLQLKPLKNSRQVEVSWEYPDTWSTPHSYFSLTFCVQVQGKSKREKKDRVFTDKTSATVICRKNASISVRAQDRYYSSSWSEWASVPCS
T1 sequence 2: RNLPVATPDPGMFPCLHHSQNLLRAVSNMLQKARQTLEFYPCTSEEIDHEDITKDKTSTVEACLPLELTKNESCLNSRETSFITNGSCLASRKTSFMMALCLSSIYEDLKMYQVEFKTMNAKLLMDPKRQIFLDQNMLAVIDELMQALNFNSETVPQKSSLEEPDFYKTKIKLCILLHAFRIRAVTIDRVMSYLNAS
As to the kind of experiment: method not stated in the sentence (Biacore named in Example 1A). For orientation: SPR reads the build-up and loss of mass on a sensor chip optically.

Experiment [2] deals with T2, Human Chimera 9 (human IL-12 p40 G35D & G61L) (human, UniProt P29460 23-328).
T2 construct: Predominantly human p40 with rat residues; the two residues were only mutated together; also called Sites 9, 10
T2 chain: T1 sequence 1 with G35D, G61L
As to the kind of experiment: SPR (Biacore), mAb immobilised; grade of the mutation's effect: - = no effect.
Description: (§1) Specifically, antibody was covalently linked via free amine groups to the Biacore chip dextran matrix by first activating carboxyl groups on the matrix with 100 mM N-hydroxysuccinimide (NHS) and 400 mM N-Ethyl-N′-(3-dimethylaminopropyl)-carbodiimide hydrochloride (EDC). This was completed across four different flow cells. […] Typically, 5000 resonance units were immobilized. Unreacted matrix EDC-esters were deactivated by an injection of 1 M ethanolamine.
(§2) To ascertain the epitope pattern of several different monoclonal antibodies against IL-12p40 supernatant samples, a direct binding assay was conducted. Aliquots of recombinant human IL-12p40 (100 nM) were injected across covalently immobilized antibody on the Biacore dextran chip biosensor surface at a flow rate of 25 mL/min. Before injection of the antigen and immediately afterward, HBS-EP buffer alone flowed through each flow cell. […] The response was measured in Resonance Units (RU's). […] The covalently immobilized antibody-coupled surfaces were completely regenerated using 10 mM HCl (5 min contact time) and retained their full binding capacity over twenty cycles.

The target in experiment [3] is T3, Human Chimera 1 (human IL-12 p40 Y16R) (human, UniProt P29460 23-328).
T3 construct: Predominantly human p40 with the rat residue; HEK293.F supernatant; also called Site 7a
T3 sequence: T1 sequence 1 with Y16R
As to the kind of experiment: SPR (Biacore), mAb immobilised, chimera supernatant injected.
Description: as §1, §2

Experiment [4] concerns the target T4, Human Chimera 2 (human IL-12 p40 D87N) (human, UniProt P29460 23-328).
T4 construct: Predominantly human p40 with the rat residue; HEK293.F supernatant; also called Site 7b
T4 sequence: T1 sequence 1 with D87N
The experiment is described as above.
Description: as §1, §2

Experiment [5] concerns the target T1, human IL-12 p70. As to the kind of experiment: not stated in the sentence (FIG. 2).

Residue numbers refer to the chain shown, from its start.

B1: J695 (antibody, IgG1, V domains shown)
VH: QVQLVESGGGVVQPGRSLRLSCAASGFTFSSYGMHWVRQAPGKGLEWVAFIRYDGSNKYYADSVKGRFTISRDNSKNTLYLQMNSLRAEDTAVYYCKTHGSHDNWGQGTMVTVSS
VL: QSVLTQPPSVSGAPGQRVTISCSGSRSNIGSNTVKWYQQLPGTAPKLLIYYNDQRPSGVPDRFSGSKSGTSASLAITGLQAEDEADYYCQSYDRYTHPALLFGTGTKVTVLG
notes: Recombinant human mAb from CHO cells, IgG1 heavy and lambda light chain constant regions; also called human mAb J695
Take B1: binding in experiment [1] was characterised by a dissociation constant (Kd) of 0.102 nM. Besides, the values for the binding result in experiment [2], in experiment [3] and in experiment [4] were “binds”, “no binding” and “no binding”, respectively.

B2: 103-14 (antibody, V domains shown)
VH: B1 VH with E6Q, N84K
VL: SYVLTQPPSVSGTPGQRVTISCSGGRSNIGSNTVKWYQQLPGTAPKLLIYGNDQRPSGVPDRFSGSKSGTSASLAITGVQAEDEADYYCQSYDRGFTGSMVFGTGTKVTVL
For B2, the “fold increase in efficacy over Joe 9” value in experiment [5] was 1000 fold.
